In this experiment the target is T1, ubiquitin (Ub) (UniProt P0CG48 1-76).
T1 construct: ubiquitin, the mature 76-residue product of the polyubiquitin precursor; Used 15N-labelled or unlabelled; also called monoUb; 15N-labeled Ub; source: E. coli (pET-3a-Ub), purified (acetic acid denaturation, SP XL column, Superdex-75)
The experiment can be described thus: NMR titration; 15N-Ub (~0.2 mM) titrated with increasing amount of GB1-tagged UIM peptides; 1H-15N HSQC; 20 mM phosphate, 100 mM NaCl, pH 6.5, 25°C; apparent KD from I13, K48 and L71 of Ub; for AT3-UIM12 a simplified 1:2 fit with the two UIM motifs binding Ub equally. To be noted: both partners purified.

B1: GB1-fused AT3-UIM3 (residues 335-354) (domain or fragment)
chain: SEEDMLQAAVTMSLETVRND
modifications: GB1 carrier and C-terminal His6 left out. The template's polyQ length is not printed. The printed limits are applied to the 361-aa UIM3-containing form, where they span the whole UIM3 and correspond …
On to B1, for which the Kd was more than 3 mM.

The values are drawn from publication PMC2951365 (PLoS ONE, 2010).
